In publication PMC9576935, “MiR-585-5p impedes gastric cancer proliferation and metastasis by orchestrating the interactions among CREB1, MAPK1 and MITF”:

Molecular target: CREB1 (recombinant, Ni-affinity purified) (UniProt P16220 1-327)
Assay: EMSA; LightShift EMSA kit: 2 ul 5x binding buffer, 6 ul CREB1, 1 ul probe, 25 C, 20 min; salt and pH not stated
Settings: protein: recombinant; (Ni-chelating purification); chain copies: 2; label: 5' 6-FAM (FITC) on forward strand (Methods); blunt

Chain of CREB1 (recombinant, Ni-affinity purified) (P16220 whole entry): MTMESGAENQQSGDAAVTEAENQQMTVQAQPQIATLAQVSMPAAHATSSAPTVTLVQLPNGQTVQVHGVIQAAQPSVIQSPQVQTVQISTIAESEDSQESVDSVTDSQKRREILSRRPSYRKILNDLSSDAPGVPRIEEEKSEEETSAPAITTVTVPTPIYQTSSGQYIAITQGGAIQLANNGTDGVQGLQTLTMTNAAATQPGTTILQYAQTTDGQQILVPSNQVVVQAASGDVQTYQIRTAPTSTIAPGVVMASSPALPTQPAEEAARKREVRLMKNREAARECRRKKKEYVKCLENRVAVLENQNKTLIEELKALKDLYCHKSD

B1: MITF-wt probe (dsDNA)
DNA 1: TGGATGTCTTTTCTGATGTGAAATTAAA
DNA 2: TTTAATTTCACATCAGAAAAGACATCCA
B1: binds.
